Like-named read-outs stand apart in the source and are kept apart here.

Among the data in patent US20180037622A1 are IC50, Activin Inhibition Activity (KI) and GDF11 Inhibition Activity (KI) values, retold here.

What all share (experiment): cell-based or functional assay
Test [1] concerns the target T1, Activin A (UniProt P08476).
T1 sequence (looked up): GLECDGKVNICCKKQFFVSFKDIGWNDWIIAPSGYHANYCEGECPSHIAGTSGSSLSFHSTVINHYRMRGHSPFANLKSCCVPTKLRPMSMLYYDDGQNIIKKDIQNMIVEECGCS

The target in test [2] is T2, Growth and Differentiation Factor-11 (GDF11) (UniProt O95390).
T2 sequence (looked up): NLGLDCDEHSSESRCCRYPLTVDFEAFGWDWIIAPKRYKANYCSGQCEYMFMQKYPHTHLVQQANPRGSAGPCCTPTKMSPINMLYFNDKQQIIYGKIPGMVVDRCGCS

In test [3] the target is T1, Activin A. This is another data set of the same source.
For test [4], the target named is T2, Growth and Differentiation Factor-11 (GDF11). This is another data set of the same source.

B1: ActRIIB(22-131)-hFc (Fc fusion, not shown: a dimerising Fc or GST)
chain: GEAETRECIYYNANWELERTNQSGLERCEGEQDKRLHCYASWRNSSGTIELVKKGCWLDDFNCYDRQECVATEENPQVYFCCCEGNFCNERFTHLPEAGGPEVTYEPPPT
As to B1, the IC50 (as a rule, the midpoint of a concentration-inhibition curve) with Activin A [1] was determined as 0.1 µg/mL; in test [2], 0.071 µg/mL.

B2: ActRIIB-Fc A64 20-134 (Fc fusion, not shown: a dimerising Fc or GST)
chain: GRGEAETRECIYYNANWELERTNQSGLERCEGEQDKRLHCYASWANSSGTIELVKKGCWLDDFNCYDRQECVATEENPQVYFCCCEGNFCNERFTHLPEAGGPEVTYEPPPTAPT
Consider B2, for which the Activin Inhibition Activity (KI) in the test with Activin A [3] came out at 1000 nM. The molecule further came in with a GDF11 Inhibition Activity (KI) in test [4] of 1000 nM.

B3: ActRIIB(21-131)-hFc (Fc fusion, not shown: a dimerising Fc or GST)
chain: RGEAETRECIYYNANWELERTNQSGLERCEGEQDKRLHCYASWRNSSGTIELVKKGCWLDDFNCYDRQECVATEENPQVYFCCCEGNFCNERFTHLPEAGGPEVTYEPPPT
Consider B3, for which the results for the IC50 (with Activin A [1]; in test [2]) were 0.325 µg/mL and 0.121 µg/mL, respectively.

B4: ActRIIB(23-131)-hFc (Fc fusion, not shown: a dimerising Fc or GST)
chain: EAETRECIYYNANWELERTNQSGLERCEGEQDKRLHCYASWRNSSGTIELVKKGCWLDDFNCYDRQECVATEENPQVYFCCCEGNFCNERFTHLPEAGGPEVTYEPPPT
Regarding B4, the IC50 stood at 0.043 µg/mL in the test with Activin A [1] and 0.06 µg/mL in test [2].

B5: ActRIIB(24-131)-hFc (Fc fusion, not shown: a dimerising Fc or GST)
chain: AETRECIYYNANWELERTNQSGLERCEGEQDKRLHCYASWRNSSGTIELVKKGCWLDDFNCYDRQECVATEENPQVYFCCCEGNFCNERFTHLPEAGGPEVTYEPPPT
As to B5, the IC50 with Activin A [1] came to 0.105 µg/mL; in test [2], 0.069 µg/mL.

B6: ActRIIB(20-131)-hFc (Fc fusion, not shown: a dimerising Fc or GST)
chain: GRGEAETRECIYYNANWELERTNQSGLERCEGEQDKRLHCYASWRNSSGTIELVKKGCWLDDFNCYDRQECVATEENPQVYFCCCEGNFCNERFTHLPEAGGPEVTYEPPPT
As for B6, the IC50 in the test with Activin A [1] is 0.201 µg/mL; in test [2], 0.183 µg/mL; in the test with Activin A [3], 0.044 µg/mL; in test [4], 0.12 µg/mL.

B7: ActRIIB(20-132)-hFc (Fc fusion, not shown: a dimerising Fc or GST)
chain: GRGEAETRECIYYNANWELERTNQSGLERCEGEQDKRLHCYASWRNSSGTIELVKKGCWLDDFNCYDRQECVATEENPQVYFCCCEGNFCNERFTHLPEAGGPEVTYEPPPTA
Take B7: the IC50 with Activin A [3] worked out at 0.032 µg/mL; in test [4] it was 0.087 µg/mL.

B8: ActRIIB(20-128)-hFc (Fc fusion, not shown: a dimerising Fc or GST)
chain: GRGEAETRECIYYNANWELERTNQSGLERCEGEQDKRLHCYASWRNSSGTIELVKKGCWLDDFNCYDRQECVATEENPQVYFCCCEGNFCNERFTHLPEAGGPEVTYEP
B8: the IC50 with Activin A [3] was 0.158 µg/mL; in test [4] it was 0.13 µg/mL.
